For assay [1], the target named is T1, ENPP1 (Homo sapiens, UniProt P22413).
T1 sequence (P22413 1-925): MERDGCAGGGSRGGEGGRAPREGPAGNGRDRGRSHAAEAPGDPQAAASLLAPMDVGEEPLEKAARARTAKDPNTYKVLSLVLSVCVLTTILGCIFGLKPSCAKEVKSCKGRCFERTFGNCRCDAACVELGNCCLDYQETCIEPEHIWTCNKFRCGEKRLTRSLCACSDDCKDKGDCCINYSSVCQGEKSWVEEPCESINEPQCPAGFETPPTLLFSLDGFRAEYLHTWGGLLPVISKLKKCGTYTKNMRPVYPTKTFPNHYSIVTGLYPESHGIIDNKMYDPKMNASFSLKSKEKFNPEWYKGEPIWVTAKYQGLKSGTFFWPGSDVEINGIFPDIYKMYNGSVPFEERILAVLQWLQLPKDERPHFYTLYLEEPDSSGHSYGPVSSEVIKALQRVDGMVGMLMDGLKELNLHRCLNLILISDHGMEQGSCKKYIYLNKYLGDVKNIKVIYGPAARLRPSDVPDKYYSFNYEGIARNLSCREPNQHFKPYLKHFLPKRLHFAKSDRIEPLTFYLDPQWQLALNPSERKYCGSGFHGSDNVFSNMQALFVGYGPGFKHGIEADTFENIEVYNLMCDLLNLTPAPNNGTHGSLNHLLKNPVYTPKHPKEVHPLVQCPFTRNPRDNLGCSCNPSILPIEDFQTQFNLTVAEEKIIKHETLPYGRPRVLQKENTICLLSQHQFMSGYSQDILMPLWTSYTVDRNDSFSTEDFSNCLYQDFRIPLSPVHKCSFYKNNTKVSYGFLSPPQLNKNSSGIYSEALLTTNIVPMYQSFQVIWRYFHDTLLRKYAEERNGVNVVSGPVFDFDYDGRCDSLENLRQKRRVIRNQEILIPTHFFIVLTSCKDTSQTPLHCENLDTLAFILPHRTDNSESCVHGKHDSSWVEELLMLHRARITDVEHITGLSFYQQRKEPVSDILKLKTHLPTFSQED
Nature of the assay: Luciferase based ATP assay of ENPP1 inhibition. Format: biochemical. The settings on record: FIG. 17. The procedure:
FIG. 17 is an exemplary graph showing the effect of monoclonal Ab 12-J-4 in inhibiting ENPP1. In a luciferase based assay, ATP was incubated with luciferase in the presence or absence of ENPP1+/−the mAb or IgG control. In the absence of ENPP1, high luminescence signal is obtained.

Assay [2] deals with ENPP1 mediated cell death of cardiac fibroblasts. The assay can be described thus: Co-culture of cardiac fibroblasts and cardiomyocytes with recombinant ENPP1 and ATP, cell death. The settings on record: for cell death and detachment of cardiac fibroblasts: images after 48 hours, versus IgG control, FIG. 18A. Format: cell-based. The procedure:
FIG. 18A are exemplary micrographs showing ENPP1 mAb inhibits ENPP1 mediated cell death. Cardiac fibroblasts (green) were co-cultured with cardiomyocytes (red) followed by the addition of vehicle (panel A) or recombinant ENPP1 and ATP and IgG (panel B) or recombinant ENPP1 and ATP and 12-J-4 ENPP1mAb (panel C). Images were taken after 48 hours and show cell death and detachment of cardiac fibroblasts in the IgG control well (panel B).
FIG. 18B is an exemplary graph showing results of flow cytometry measuring cell death (PI+) from the assay performed in FIG. 18A.
Next, functional data was collected for the ENPP1 mAb using an in vitro functional assay. As shown in the previous examples, ENPP1 expression induced cardiomyocytes to release pro-inflammatory and pro-apoptotic molecules that induce cell death in a host of cell types in the injury region. To test the ENPP1 mAb, an in vitro functional assay was performed in which cardiac fibroblasts were incubated with cardiomyocytes followed by the addition of a vehicle, recombinant ENPP1 and ATP and IgG, or recombinant ENPP1 and ATP and 12-J-4 ENPP1mAb.

The next assay addresses T2, murine ENPP1 (Mus musculus, UniProt P06802).
T2 sequence (P06802 1-906): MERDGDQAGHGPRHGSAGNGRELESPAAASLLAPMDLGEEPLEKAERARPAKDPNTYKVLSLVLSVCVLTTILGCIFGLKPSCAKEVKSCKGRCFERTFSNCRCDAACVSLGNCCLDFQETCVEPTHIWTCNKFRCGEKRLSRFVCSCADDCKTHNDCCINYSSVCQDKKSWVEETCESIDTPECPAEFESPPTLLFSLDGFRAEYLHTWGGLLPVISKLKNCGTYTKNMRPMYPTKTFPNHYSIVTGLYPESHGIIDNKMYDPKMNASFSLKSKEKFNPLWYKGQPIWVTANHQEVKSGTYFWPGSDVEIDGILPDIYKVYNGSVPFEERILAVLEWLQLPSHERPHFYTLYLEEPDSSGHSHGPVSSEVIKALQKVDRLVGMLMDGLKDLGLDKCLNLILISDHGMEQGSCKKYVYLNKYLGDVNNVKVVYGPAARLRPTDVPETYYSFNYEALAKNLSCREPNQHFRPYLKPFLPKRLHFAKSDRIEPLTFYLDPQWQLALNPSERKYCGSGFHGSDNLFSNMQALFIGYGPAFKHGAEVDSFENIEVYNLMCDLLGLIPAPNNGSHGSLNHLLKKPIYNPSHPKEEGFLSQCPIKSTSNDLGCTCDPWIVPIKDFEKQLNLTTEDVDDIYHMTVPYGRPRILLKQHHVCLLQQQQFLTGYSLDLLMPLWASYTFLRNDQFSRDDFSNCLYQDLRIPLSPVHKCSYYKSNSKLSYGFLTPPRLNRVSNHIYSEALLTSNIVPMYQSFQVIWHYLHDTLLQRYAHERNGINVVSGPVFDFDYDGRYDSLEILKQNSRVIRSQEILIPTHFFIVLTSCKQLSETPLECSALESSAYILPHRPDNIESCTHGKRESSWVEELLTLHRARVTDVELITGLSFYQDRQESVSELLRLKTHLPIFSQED
The assay can be described thus: Cross reactivity of the antibody with murine ENPP1. The settings on record: antibody raised against human recombinant protein. It is filed as binding. An excerpt:
The antibody was generated in collaboration with Lake Pharma using standard techniques of monoclonal antibody (mAb) generation, including immunization, collection and testing of hybridoma supernatants, cloning of hybridomas and further confirmation by multiple affinity assays followed by selection and production of the ENPP1mAb in a recombinant manner. […] The selected hybridoma has been sequenced and the recombinant monoclonal is produced on a CHO cell line with characterization by electropherogram and mass spectrometry. The molecular weight of the heavy chain is approximately 48 kD and the light chain 24 kD.

The target in assay [3] is T1, ENPP1. Nature of the assay: Flow cytometry binding of ENPP1 mAb to HEK cells over-expressing full length ENPP1. Also noted: HEK cells over-expressing full length ENPP1 were incubated with varying concentrations of ENPP1 mAb; expressed in transfected cells; host or cells: HEK cells. The settings on record: compared among several clones obtained; FIG. 15. The procedure:
FIG. 15 is an exemplary affinity binding curve of ENPP1 monoclonal antibody (mAb) targeting human ENPP1. HEK cells over-expressing full length ENPP1 were incubated with varying concentrations of ENPP1 mAb followed by flow cytometry to determine mean fluorescence intensity as a readout for binding. […] IgG at an identical concentration is used as a control.
In general terms: In flow cytometry, cells or beads pass a laser one at a time.

The text below walks through data of patent publication US12473372B2, “Inhibiting anti-ENPP1 antibodies” (The Regents of the University of California, priority 2020, dated 2025).

B1: 12-J-4: Anti-ENPP1 monoclonal antibody, IgG1kappa, made recombinantly in CHO cells; CDRs SEQ ID NO: 1-6, VH SEQ ID NO: 7, VL SEQ ID NO: 9 (antibody, V domains shown)
VH: EVMLVESGGGLVKPGGSLKLSCVASGFTFSSYTMSWVRQTPEKRLEWVATISGGGGNTYYPDSVKGRFTISRDNAKNTLYLQMSSLRSEDTALYYCARRHYGSSPYAMDYWGQGTSVTVSS
VL: DIQMTQTTSSLSASLGDRVTISCRASQDISNYLNWYQQKPDGTVKLLIYHKTRLHSGVPSRFSGSGSGTDYSLTISNLEQEDIATYFCQQGNMLPWTFGGGTKLEIK
modifications: IgG1 kappa constant regions
On to B1, for which the “luminescence signal when ENPP1 is added” value with ENPP1 [1] (ATP incubated with luciferase and ENPP1, compared to IgG) is reported as “significantly higher”. For the same molecule, the “inhibition of ENPP1” value with ENPP1 [1] (at nanomolar concentrations) was “potently inhibits”. The “PI+ cells (cell death) by flow cytometry” value in assay [2] (FIG. 18B) is “significant reduction”. The results for the “cell death and detachment of cardiac fibroblasts” value in assay [2] and in assay [2] (listed as ENPP1mAb) were “significantly abrogated cell death” and “significantly diminished”, respectively. In the assay with murine ENPP1, the “cross reactivity with murine ENPP1” value was “significant cross reactivity”. Also, the “binding and inhibitory effects on ENPP1 activity” value with ENPP1 [3] is “most potent”.
